Data on three molecules can be found in PMC6053351, “Structural and biochemical insights into human zinc finger protein AEBP2 reveals interactions with RBBP4” (Protein & Cell, 2017).

By Kd is commonly meant the equilibrium constant for the complex coming apart.

Holding throughout (conditions): both partners purified
For assay [1], the target named is T1, RBBP4, full-length, wild type (UniProt Q09028 1-425).
T1 construct: RBBP4 (also known as RbAp48), full-length; also called RbAp48; apo RBBP4
In words: SEC; gel filtration on a Superdex 200 10/300 GL column; RBBP4 mixed with excess AEBP2 ZF-RRK, against apo RBBP4 and apo ZF-RRK; SDS-PAGE of the peaks. (In general: SEC sorts molecules by how far they enter the pores of the column.)

The target in assay [2] is T1, RBBP4, full-length, wild type. In words: ITC; AEBP2_(379–390) peptide titrated into RBBP4; one-site binding model, Origin 7. A general note: ITC needs no label: the signal is the heat of the interaction.
Assay [3] has as its target T2, RBBP4 Glu126Ala/Asn128Ala/Glu179Ala (UniProt Q09028 1-425, Glu126Ala | Asn128Ala | Glu179Ala).
T2 construct: RBBP4 with the mutations Glu126Ala/Asn128Ala/Glu179Ala; parent is the wild-type RBBP4 of m1; also called RBBP4 E126A/N128A/E179A
The description is as above.

For assay [4], the target named is T3, RBBP4 Glu231Ala (UniProt Q09028 1-425, Glu231Ala).
T3 construct: RBBP4 with the mutation Glu231Ala; parent is the wild-type RBBP4 of m1; also called RBBP4 E231A
T3 sequence (Q09028 whole entry E231A): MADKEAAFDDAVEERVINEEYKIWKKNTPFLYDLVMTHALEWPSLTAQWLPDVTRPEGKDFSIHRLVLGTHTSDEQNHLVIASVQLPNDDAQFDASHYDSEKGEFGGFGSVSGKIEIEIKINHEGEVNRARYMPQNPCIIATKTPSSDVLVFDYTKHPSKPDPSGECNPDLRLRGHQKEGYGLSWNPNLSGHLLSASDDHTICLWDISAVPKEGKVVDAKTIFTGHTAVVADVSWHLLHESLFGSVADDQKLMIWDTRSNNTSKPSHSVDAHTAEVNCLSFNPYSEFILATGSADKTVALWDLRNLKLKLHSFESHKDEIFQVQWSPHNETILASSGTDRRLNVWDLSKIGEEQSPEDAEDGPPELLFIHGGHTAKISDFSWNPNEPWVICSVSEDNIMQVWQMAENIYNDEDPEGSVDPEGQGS
Described as above.

T1 sequence (Q09028 whole entry): as the sequence (Q09028 whole entry E231A) above, with A231E counted along it
T2 sequence (Q09028 whole entry E126A/N128A/E179A): as the sequence (Q09028 whole entry E231A) above, with E126A, N128A, E179A, A231E counted along it

B1: AEBP2 ZF-RRK (ZF1–3 and the RRK-rich motif, residues Asn258–Asp396) (domain or fragment, human, UniProt Q6ZN18-1 258-396, looked up)
chain: NIAYNCCWDQCQACFNSSPDLADHIRSIHVDGQRGGVFVCLWKGCKVYNTPSTSQSWLQRHMLTHSGDKPFKCVVGGCNASFASQGGLARHVPTHFSQQNSSKVSSQPKAKEESPSKAGMNKRRKLKNKRRRSLPRPHD
notes: AEBP2, human, residues Asn258–Asp396 (numbering as for Uniprot entry Q6ZN18-1); also called apo AEBP2 ZF-RRK; source: recombinant protein
Take B1: the binding result in assay [1] is listed as “binds”.

B2: AEBP2_(379–390) peptide with mutations Arg380Ala/Lys382Ala (peptide, UniProt Q6ZN18-1 379-390, looked up)
peptide: KARALKNKRRRS
notes: AEBP2, human, residues Lys379–Ser390 of Uniprot entry Q6ZN18-1 with Arg380Ala/Lys382Ala
Consider B2, for which, in assay [2], the “fold reduction of binding affinity against the wild-type peptide” value was around 20 fold.

B3: AEBP2_(379–390) peptide (RRK-rich motif, residues Lys379–Ser390) (peptide, UniProt Q6ZN18-1 379-390, looked up)
peptide: KRRKLKNKRRRS
notes: AEBP2, human, RRK-rich motif, residues Lys379–Ser390 of Uniprot entry Q6ZN18-1; source: synthetic peptide
As to B3, the “fold reduction of binding affinity against wild-type RBBP4” value in assay [3] was 7 fold. Further, in assay [2], binding was characterised by a dissociation constant (Kd) of 7.6 ± 0.6 µM and the dH is -15900 ± 395 cal/mol. Besides, the “fold reduction of binding affinity against wild-type RBBP4” value in assay [4] stood at 5 fold.
